Test [1] deals with acetylcholine receptor. The test is described as follows: SPR, peptide at 10 uM, AchR immobilized. In general terms: Surface plasmon resonance follows binding to a sensor surface in real time, without labels.
In test [2] the target is acetylcholine receptor. The test is described as follows: SPR, AchR immobilized on CM5 chip, peptide 10 µM.

KRATFR [6mer-1-730] had a Binding affinity in the test with acetylcholine receptor [1] of 13 RU.

In the test with acetylcholine receptor [1], KRDWVK [6mer-1-702] yielded a Binding affinity of 31 RU.

Molecule KKFHPR [6mer-1-703] displayed a Binding affinity with acetylcholine receptor [1] of 18 RU.

The molecule RLYYRK [6mer-2-209] yielded a Binding affinity (RU) in the test with acetylcholine receptor [2] of 148 RU.

KRMMVK [6mer-1-715] registered a Binding affinity with acetylcholine receptor [1] of 18 RU.

For the molecule KGISKK [6mer-2-231], the Binding affinity (RU) with acetylcholine receptor [2] is 144 RU.

As for RGQYKK [6mer-2-239], in the test with acetylcholine receptor [2], the Binding affinity (RU) amounted to 125 RU.

RRIKAR [6mer-1-731] gave a Binding affinity in the test with acetylcholine receptor [1] of 18 RU.

As to KGILKK [6mer-2-216], in the test with acetylcholine receptor [2], the Binding affinity (RU) was 126 RU.

Consider KKHSMK [6mer-1-726], for which the Binding affinity in the test with acetylcholine receptor [1] turned out to be 33 RU.

For RRAAVR [6mer-1-732], the Binding affinity with acetylcholine receptor [1] turned out to be 26 RU.

KRPKNK [6mer-1-724] returned a Binding affinity with acetylcholine receptor [1] of 19 RU.

RRMCER [6mer-1-704] registered a Binding affinity with acetylcholine receptor [1] of 16 RU.

In the test with acetylcholine receptor [2], KWQLRR [6mer-2-212] displayed a Binding affinity (RU) of 148 RU.

RRATHR [6mer-1-711] showed a Binding affinity with acetylcholine receptor [1] of 19 RU.

Molecule KGVSKK [6mer-2-218] had a Binding affinity (RU) with acetylcholine receptor [2] of 147 RU.

In the test with acetylcholine receptor [2], KSQRRR [6mer-2-242] had a Binding affinity (RU) of 135 RU.

As for RRMPFK [6mer-1-716], the Binding affinity in the test with acetylcholine receptor [1] is 11 RU.

Molecule RLFLKR [6mer-2-224] returned a Binding affinity (RU) with acetylcholine receptor [2] of 148 RU.

Consider KQLTRR [6mer-2-223], for which the Binding affinity (RU) with acetylcholine receptor [2] is 142 RU.

On to KRTEWR [6mer-1-705], for which, in the test with acetylcholine receptor [1], the Binding affinity is 12 RU.

Regarding KKKSGK [6mer-1-729], the Binding affinity with acetylcholine receptor [1] was found to be 23 RU.

In turn, KQFTRK [6mer-2-232] showed a Binding affinity (RU) in the test with acetylcholine receptor [2] of 135 RU.

In turn, RSQQRK [6mer-2-208] showed a Binding affinity (RU) with acetylcholine receptor [2] of 128 RU.

KKDAEK [6mer-1-719] gave a Binding affinity in the test with acetylcholine receptor [1] of 27 RU.

RVVYRK [6mer-2-222]: in the test with acetylcholine receptor [2], the Binding affinity (RU) stood at 127 RU.

In the test with acetylcholine receptor [2], KQVRKK [6mer-2-221] showed a Binding affinity (RU) of 153 RU.

Turning to KRMKDR [6mer-1-706], the Binding affinity with acetylcholine receptor [1] stood at 29 RU.

Regarding RWIQRR [6mer-2-230], the Binding affinity (RU) with acetylcholine receptor [2] was found to be 135 RU.

Molecule KVYSKR [6mer-2-220] showed a Binding affinity (RU) with acetylcholine receptor [2] of 135 RU.

Take KQLTKR [6mer-2-241]: the Binding affinity (RU) with acetylcholine receptor [2] was 135 RU.

Consider KWVSKR [6mer-2-207], for which the Binding affinity (RU) in the test with acetylcholine receptor [2] was determined as 153 RU.

RKANGK [6mer-1-727] displayed a Binding affinity with acetylcholine receptor [1] of 29 RU.

RWRSRK [6mer-2-214] had a Binding affinity (RU) with acetylcholine receptor [2] of 139 RU.

KRHEDR [6mer-1-717] returned a Binding affinity in the test with acetylcholine receptor [1] of 22 RU.

With RKMPAK [6mer-1-723], the Binding affinity with acetylcholine receptor [1] was determined as 33 RU.

In the case of RRNKVR [6mer-1-722], the Binding affinity with acetylcholine receptor [1] came to 12 RU.

In turn, KLVRKK [6mer-2-235] registered a Binding affinity (RU) with acetylcholine receptor [2] of 136 RU.

Molecule KSILRR [6mer-2-213] had a Binding affinity (RU) in the test with acetylcholine receptor [2] of 142 RU.

With RRDNAR [6mer-1-728], the Binding affinity in the test with acetylcholine receptor [1] amounted to 23 RU.

In the case of KKDKPK [6mer-1-725], the Binding affinity in the test with acetylcholine receptor [1] was determined as 32 RU.

Take KKKHEK [6mer-1-708]: in the test with acetylcholine receptor [1], the Binding affinity came to 14 RU.

KRFWPK [6mer-1-707]: the Binding affinity with acetylcholine receptor [1] turned out to be 26 RU.

In the test with acetylcholine receptor [2], KWQQKK [6mer-2-236] yielded a Binding affinity (RU) of 131 RU.

Consider KRLLRR [6mer-2-225], for which, in the test with acetylcholine receptor [2], the Binding affinity (RU) was 145 RU.

The molecule KKATNK [6mer-1-713] gave a Binding affinity with acetylcholine receptor [1] of 20 RU.

In the case of RWQSKK [6mer-2-229], the Binding affinity (RU) with acetylcholine receptor [2] was found to be 127 RU.

In the case of RKFKAR [6mer-1-718], the Binding affinity with acetylcholine receptor [1] worked out at 23 RU.

For the molecule KLFQKK [6mer-2-217], the Binding affinity (RU) in the test with acetylcholine receptor [2] amounted to 135 RU.

As for KLQRRK [6mer-2-227], in the test with acetylcholine receptor [2], the Binding affinity (RU) was 147 RU.

In the case of RGLSRR [6mer-2-211], the Binding affinity (RU) with acetylcholine receptor [2] was found to be 135 RU.

RLLCKR [6mer-2-226]: the Binding affinity (RU) with acetylcholine receptor [2] stood at 154 RU.

RRRRRK [6mer-2-238] showed a Binding affinity (RU) with acetylcholine receptor [2] of 142 RU.

On to RKAMEK [6mer-1-721], for which the Binding affinity in the test with acetylcholine receptor [1] worked out at 22 RU.

Turning to KSRTKR [6mer-2-203], the Binding affinity (RU) with acetylcholine receptor [2] was determined as 135 RU.

In the test with acetylcholine receptor [2], RRRCRK [6mer-2-240] came in with a Binding affinity (RU) of 142 RU.

RSQSRR [6mer-2-210]: the Binding affinity (RU) in the test with acetylcholine receptor [2] came to 128 RU.

As to RSQTKR [6mer-2-234], in the test with acetylcholine receptor [2], the Binding affinity (RU) was 142 RU.

Turning to RLIYKK [6mer-2-202], the Binding affinity (RU) in the test with acetylcholine receptor [2] is 122 RU.

For the molecule KSFQRK [6mer-2-205], in the test with acetylcholine receptor [2], the Binding affinity (RU) stood at 147 RU.

In the case of KKFKPK [6mer-1-709], the Binding affinity with acetylcholine receptor [1] amounted to 29 RU.

RRVQKR [6mer-2-204]: the Binding affinity (RU) in the test with acetylcholine receptor [2] is 142 RU.

KWQYKK [6mer-2-206] displayed a Binding affinity (RU) with acetylcholine receptor [2] of 148 RU.

RGVSKR [6mer-2-219]: the Binding affinity (RU) in the test with acetylcholine receptor [2] amounted to 153 RU.

Take RRKHKR [6mer-1-720]: in the test with acetylcholine receptor [1], the Binding affinity worked out at 11 RU.

Consider KKMHHR [6mer-1-710], for which the Binding affinity in the test with acetylcholine receptor [1] stood at 21 RU.

The molecule RLVYKR [6mer-2-237] showed a Binding affinity (RU) with acetylcholine receptor [2] of 123 RU.

In the test with acetylcholine receptor [1], KRTSFK [6mer-1-714] had a Binding affinity of 25 RU.

KKPSNK [6mer-1-712] returned a Binding affinity in the test with acetylcholine receptor [1] of 24 RU.

In the test with acetylcholine receptor [2], RLYYRR [6mer-2-215] yielded a Binding affinity (RU) of 123 RU.

Turning to KGQCKK [6mer-2-228], the Binding affinity (RU) in the test with acetylcholine receptor [2] was found to be 141 RU.

Values taken from patent publication US20250011363A1, “OPTIMIZED SHORTENED PEPTIDE THAT BINDS TO ACETYLCHOLINE RECEPTOR, AND USE THEREOF” (SKINMED CO., LTD., priority 2021, published 2025).
